From patent US20050002950

Target: recombinant human C5a (UniProt P01031)
Sequence (P01031 678-751): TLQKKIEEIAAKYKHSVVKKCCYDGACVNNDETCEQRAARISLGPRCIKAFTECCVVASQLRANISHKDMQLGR

## ScpB, the C5a peptidase of GBS, on whole cells of strain COH1
  C5a protease activity (C5a-stimulated PMN adherence to gelatin-coated plastic after preincubating C5a with GBS): Preincubation of C5a with COH1 or TOH121 abolished C5a activity
